For the experiment, the target named is His-tagged SARS-CoV-2 RBD protein (binding studies) (SARS-CoV-2, UniProt P0DTC2). In words: BLI. Particulars: both partners purified.

This is an account of results in doi:10.1101/2020.08.02.233536 (bioRxiv, 2020).

B1:  (antibody, V domains shown)
VH: QVQLVQSGAEVKKPGASVKVSCKASGYTFTSYYMHWVRQAPGQGLEWMGIINSSGGSTSYAQKFQGRVTMTRDTSTSTVYMELSSLRSEDTAVYYCARPPRNYYDSSGYYQRAEYFQHWGQGTLVTVSS
VL: DIQLTQSPSSLSASVGDRVTITCQASQDISNYLNWYQQRPGKAPKLLIYDASNLETGVPSRFSGSGSGTDFTFTISSLQPEDIATYYCQQYDNPPLTFGGGTKLEIK
notes: also called somatic revertant VH R100bS
In the case of B1, the binding result is reported as “binds”.
